Numbered stars: 1 amine (or outer) side, 2 acyl side, 3 side chain; on linkers, the order of the positions; unused ones are H or OH. Bridge positions count the residues as written; N and C are the ends. Square brackets hold non-standard residues; d marks the D form. KCOpipzaa = N6-(4-(carboxymethyl)piperazine-1-carbonyl)-L-lysine, O=C(NCCCC[C@H](N[*:1])C(=O)[*:2])N1CCN(CC(=O)[*:3])CC1; 3Pal(6-Ph) = N[C@@H](Cc1ccc(-c2ccccc2)nc1)C(=O)O; Phe(4-COOH) = N[C@@H](Cc1ccc(C(=O)O)cc1)C(=O)O; Pro(trans-4-F) = O=C(O)[C@@H]1C[C@@H](F)CN1; Bip = N[C@@H](Cc1ccc(-c2ccccc2)cc1)C(=O)O; Pro(cis-4-F) = O=C(O)[C@@H]1C[C@H](F)CN1; Pro(4,4-F2) = O=C(O)[C@@H]1CC(F)(F)CN1; βAla = NCCC(=O)O
Legend:
[1] = molecular target: T1, BMP4 (Homo sapiens, UniProt P12644); assay: BMP4 signal transduction inhibitory activity: SMAD1 phosphorylation by BMP4 stimulus, AlphaLISA SureFire, A549 cells; format: cell-based; conditions: inhibition of SMAD1 phosphorylation by BMP4 stimulus, A549 cells; peptides of Synthesis 2; classes A-C, ND
T1 sequence (P12644 293-408): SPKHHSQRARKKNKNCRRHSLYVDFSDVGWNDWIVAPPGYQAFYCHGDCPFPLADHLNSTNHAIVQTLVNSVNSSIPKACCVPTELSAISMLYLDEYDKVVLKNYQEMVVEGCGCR

[2] = molecular target: T2, BMP7 (Homo sapiens, UniProt P18075); assay: BMP7 signal transduction inhibitory activity: SMAD1 phosphorylation by BMP7 stimulus, A549 cells; format: cell-based; conditions: inhibition of SMAD1 phosphorylation by BMP7 stimulus, A549 cells; peptides of Synthesis 2; classes A-D, ND
T2 sequence (P18075 293-431): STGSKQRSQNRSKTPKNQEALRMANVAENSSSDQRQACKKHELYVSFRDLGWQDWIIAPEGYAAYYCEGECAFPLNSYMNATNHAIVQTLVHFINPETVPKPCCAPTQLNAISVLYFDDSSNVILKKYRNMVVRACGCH
Method in brief: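 Cell line A549; stimulus BMP7 10 nM; endpoint pSMAD1. Peptide doses: three concentrations (1–1,000 nM range) or 8 × 1/3 dilutions from 100/1,000 nM.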

Substance	aLISA BMP4 [1]	aLISA BMP7 [2]
97 ({CH2CO}-ERVYV[KCOpipzaa]R[Bip]SYP[Bip]Y[Phe(4-COOH)][Phe(4-COOH)]SC[βAla][dE]-OH; thioether N-17; not fully specified) [compound 97]	A (showed an inhibitory activity of 50% or more in a zone to which the peptide was added to in an amount of 0.2 nM)	B (showed less than 50% of inhibitory activity in 1 nM-addition zone and showed 50% or more of inhibitory activity in 10 nM-addition zone)
98 ({CH2CO}-ERVYV[KCOpipzaa]R[3Pal(6-Ph)]SYP[Bip]Y[Phe(4-COOH)][Phe(4-COOH)]SC[βAla][dE]-OH; thioether N-17; not fully specified) [compound 98]	A (showed an inhibitory activity of 50% or more in a zone to which the peptide was added to in an amount of 0.2 nM)	C (showed less than 50% of inhibitory activity in 10 nM-addition zone and showed 50% or more of inhibitory activity in 100 nM-addition zone)
99 ({CH2CO}-E[KCOpipzaa]VYVDR[Bip]SYP[Bip]Y[Phe(4-COOH)][Phe(4-COOH)]SC[βAla][dE]-OH; thioether N-17; not fully specified) [compound 99]	A (showed an inhibitory activity of 50% or more in a zone to which the peptide was added to in an amount of 0.2 nM)	C (showed less than 50% of inhibitory activity in 10 nM-addition zone and showed 50% or more of inhibitory activity in 100 nM-addition zone)
100 ({CH2CO}-E[KCOpipzaa]VYV[KCOpipzaa]R[Bip]SYP[Bip]Y[Phe(4-COOH)][Phe(4-COOH)]SC[βAla][dE]-OH; thioether N-17; not fully specified) [compound 100]	A (showed an inhibitory activity of 50% or more in a zone to which the peptide was added to in an amount of 0.2 nM)	C (showed less than 50% of inhibitory activity in 10 nM-addition zone and showed 50% or more of inhibitory activity in 100 nM-addition zone)
101 ({CH2CO}-E[KCOpipzaa]VYV[KCOpipzaa]R[3Pal(6-Ph)]SYP[Bip]Y[Phe(4-COOH)][Phe(4-COOH)]SC[βAla][dE]-OH; thioether N-17; not fully specified) [compound 101]	A (showed an inhibitory activity of 50% or more in a zone to which the peptide was added to in an amount of 0.2 nM)	C (showed less than 50% of inhibitory activity in 10 nM-addition zone and showed 50% or more of inhibitory activity in 100 nM-addition zone)
102 ({CH2CO}-E[KCOpipzaa]VYV[KCOpipzaa]R[Bip]SYV[Bip]Y[Phe(4-COOH)][Phe(4-COOH)]SC[βAla][dE]-OH; thioether N-17; not fully specified) [compound 102]	C (showed an inhibitory activity of less than 50% in 0.2 nM-addition zone and showed an inhibitory activity of 50% or more in 2 nM-addition zone were defined as B or C)	C (showed less than 50% of inhibitory activity in 10 nM-addition zone and showed 50% or more of inhibitory activity in 100 nM-addition zone)
103 ({CH2CO}-ERV[Phe(4-COOH)]V[KCOpipzaa]R[Bip]SYP[Bip]Y[Phe(4-COOH)][Phe(4-COOH)]SC[βAla][dE]-OH; thioether N-17; not fully specified) [compound 103]	A (showed an inhibitory activity of 50% or more in a zone to which the peptide was added to in an amount of 0.2 nM)	A (showed 50% or more of inhibitory activity in a zone to which the peptide was added in an amount of 1 nM)
109 ({CH2CO}-ERVYVDR[Bip]PY[Pro(cis-4-F)][Bip]Y[Phe(4-COOH)][Phe(4-COOH)]SC[βAla][dE]-OH; thioether N-17; not fully specified) [compound 109]	C (showed an inhibitory activity of less than 50% in 0.2 nM-addition zone and showed an inhibitory activity of 50% or more in 2 nM-addition zone were defined as B or C)	C (showed less than 50% of inhibitory activity in 10 nM-addition zone and showed 50% or more of inhibitory activity in 100 nM-addition zone)
110 ({CH2CO}-ERVYVDR[Bip]PY[Pro(trans-4-F)][Bip]Y[Phe(4-COOH)][Phe(4-COOH)]SC[βAla][dE]-OH; thioether N-17; not fully specified) [compound 110]	A (showed an inhibitory activity of 50% or more in a zone to which the peptide was added to in an amount of 0.2 nM)	B (showed less than 50% of inhibitory activity in 1 nM-addition zone and showed 50% or more of inhibitory activity in 10 nM-addition zone)
111 ({CH2CO}-ERVYVDR[Bip]PY[Pro(4,4-F2)][Bip]Y[Phe(4-COOH)][Phe(4-COOH)]SC[βAla][dE]-OH; thioether N-17; not fully specified) [compound 111]	A (showed an inhibitory activity of 50% or more in a zone to which the peptide was added to in an amount of 0.2 nM)	C (showed less than 50% of inhibitory activity in 10 nM-addition zone and showed 50% or more of inhibitory activity in 100 nM-addition zone)
114 (EKVYVKRFPYPFYFFSCG; not fully specified; MOD_RES 2 K represents N6-(4-(Carboxymethyl) piperazine-1-carbonyl)-L-lysine(KCOpipzaa); MOD_RES 6 K represents N6-(4-(Carboxymethyl) piperazine-1-carbonyl)-L-lysine(KCOpipzaa); MOD_RES 8 F represents (S)-3-(1,1'-Biphenyl-4-yl)-2-aminopropanoic acid(Bph); MOD_RES 12 F represents (S)-3-(1,1'-Biphenyl-4-yl)-2-aminopropanoic acid(Bph); MOD_RES 14 F represents (S)-4-(2-amino-2-carboxyethyl)benzoic aci) [compound 114]	A (showed an inhibitory activity of 50% or more in a zone to which the peptide was added to in an amount of 0.2 nM)	C (showed less than 50% of inhibitory activity in 10 nM-addition zone and showed 50% or more of inhibitory activity in 100 nM-addition zone)
115 (EKVYVKRFPYPFYFFSCG; not fully specified; MOD_RES 2 K represents N6-(4-(Carboxymethyl) piperazine-1-carbonyl)-L-lysine(KCOpipzaa); MOD_RES 6 K represents N6-(4-(Carboxymethyl) piperazine-1-carbonyl)-L-lysine(KCOpipzaa); MOD_RES 8 F represents (S)-3-(1,1'-Biphenyl-4-yl)-2-aminopropanoic acid(Bph); MOD_RES 12 F represents (S)-3-(1,1'-Biphenyl-4-yl)-2-aminopropanoic acid(Bph); MOD_RES 14 F represents (S)-4-(2-amino-2-carboxyethyl)benzoic aci) [compound 115]	A (showed an inhibitory activity of 50% or more in a zone to which the peptide was added to in an amount of 0.2 nM)	C (showed less than 50% of inhibitory activity in 10 nM-addition zone and showed 50% or more of inhibitory activity in 100 nM-addition zone)

From patent publication US20250361274A1, “PEPTIDE AND PEPTIDE-CONTAINING AGENT” (PEPTIDREAM INC., priority 2022, published 2025)
